This note sets out measurements from paper PMC6531468.

A word on the Kd: it is the free concentration of one partner at which half of the binding sites on the other are occupied at equilibrium, for simple one-to-one binding. Read a low Kd as higher affinity.

The target of data set [1] is IMP3 KH3-4 (Homo sapiens) (UniProt O00425). The experiment in a line: SELEX. The conditions noted are these: round 4.
Data set [2] addresses IMP3 KH1-4 (Homo sapiens) (UniProt O00425). The experiment in a line: SELEX. The conditions noted are these: round 4.
The target of data set [3] is IMP3 full length (Homo sapiens) (UniProt O00425). The experiment in a line: SELEX. The conditions noted are these: round 4.
IMP3 full length (Homo sapiens), sequence (O00425 whole entry): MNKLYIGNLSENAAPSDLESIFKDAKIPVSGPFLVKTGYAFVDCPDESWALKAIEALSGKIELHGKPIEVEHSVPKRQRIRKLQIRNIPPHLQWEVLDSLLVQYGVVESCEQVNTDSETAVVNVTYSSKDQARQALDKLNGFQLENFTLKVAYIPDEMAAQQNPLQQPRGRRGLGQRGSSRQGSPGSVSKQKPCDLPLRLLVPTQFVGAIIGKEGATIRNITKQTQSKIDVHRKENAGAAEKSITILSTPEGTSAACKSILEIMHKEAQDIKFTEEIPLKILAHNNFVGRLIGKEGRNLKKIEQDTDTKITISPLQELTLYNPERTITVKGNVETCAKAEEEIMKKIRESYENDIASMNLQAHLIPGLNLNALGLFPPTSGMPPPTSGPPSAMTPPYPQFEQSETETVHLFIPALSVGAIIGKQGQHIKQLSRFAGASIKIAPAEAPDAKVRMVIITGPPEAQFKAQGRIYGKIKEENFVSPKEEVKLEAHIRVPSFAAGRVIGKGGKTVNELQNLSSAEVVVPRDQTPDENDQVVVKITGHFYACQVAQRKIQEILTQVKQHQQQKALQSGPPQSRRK
Data set [4] addresses IMP3 RRM1-2 (Homo sapiens) (UniProt O00425). The experiment in a line: SELEX. The conditions noted are these: round 2.
Data set [5] concerns the target IMP3 KH1-2 (Homo sapiens) (UniProt O00425). The experiment in a line: SELEX. The conditions noted are these: round 4.
The target of data set [6] is IMP3 full length (Homo sapiens) (UniProt O00425). The experiment in a line: EMSA. The conditions noted are these: Hill n 3.1; EMSA: 10 mM Tris-HCl pH 7.5, 150 mM NaCl, 0.5 mM EDTA, 0.5 mM DTT, 0.1% NP-40, 5% glycerol, tRNA+BSA, 5 nM RNA, 30 min RT then ice; ITC/NMR: 20 mM Bis-Tris …. (A gel shift assay detects complexes by their altered migration in electrophoresis.)

IMP3 KH1-4 (Homo sapiens), sequence (O00425 164-579): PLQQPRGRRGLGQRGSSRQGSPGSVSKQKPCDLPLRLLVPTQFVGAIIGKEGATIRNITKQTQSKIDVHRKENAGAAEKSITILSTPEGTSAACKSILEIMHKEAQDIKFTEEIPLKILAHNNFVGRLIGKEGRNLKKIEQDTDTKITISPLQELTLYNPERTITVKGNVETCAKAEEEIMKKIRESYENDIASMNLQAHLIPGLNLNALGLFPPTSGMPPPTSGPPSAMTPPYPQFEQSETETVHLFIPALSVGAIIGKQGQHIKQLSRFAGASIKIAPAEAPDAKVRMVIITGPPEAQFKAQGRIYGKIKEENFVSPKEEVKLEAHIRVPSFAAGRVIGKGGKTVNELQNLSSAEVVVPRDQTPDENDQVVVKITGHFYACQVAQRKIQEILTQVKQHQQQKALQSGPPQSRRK
IMP3 KH3-4 (Homo sapiens), sequence (O00425 377-579): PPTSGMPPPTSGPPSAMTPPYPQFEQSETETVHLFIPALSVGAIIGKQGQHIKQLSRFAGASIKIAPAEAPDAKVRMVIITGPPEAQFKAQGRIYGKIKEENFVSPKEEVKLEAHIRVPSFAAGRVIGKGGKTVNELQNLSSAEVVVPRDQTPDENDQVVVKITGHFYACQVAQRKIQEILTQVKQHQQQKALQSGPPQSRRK
IMP3 KH1-2 (Homo sapiens), sequence (O00425 164-376): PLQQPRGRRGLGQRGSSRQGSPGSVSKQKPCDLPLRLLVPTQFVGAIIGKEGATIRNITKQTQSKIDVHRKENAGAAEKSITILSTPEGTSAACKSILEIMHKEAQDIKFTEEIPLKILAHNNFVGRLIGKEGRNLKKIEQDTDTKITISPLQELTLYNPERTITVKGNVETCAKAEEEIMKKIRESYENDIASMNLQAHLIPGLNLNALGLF
IMP3 RRM1-2 (Homo sapiens), sequence (O00425 1-163): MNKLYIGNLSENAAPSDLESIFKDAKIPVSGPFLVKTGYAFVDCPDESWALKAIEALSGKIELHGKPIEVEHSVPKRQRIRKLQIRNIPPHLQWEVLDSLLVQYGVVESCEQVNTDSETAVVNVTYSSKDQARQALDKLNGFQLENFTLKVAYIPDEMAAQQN

Regarding GGCACA [6-mer GGCACA], the binding signal (SELEX z-score, GST-corrected) was determined as 3.69 in data set [1], 3.92 in data set [2] and 4.85 in data set [3].

AAUAAU [6-mer AATAAT] came in with a binding signal (SELEX z-score, GST-corrected) in data set [1] of 3.24.

Consider ACACAA [6-mer ACACAA], for which, in data set [4], the binding signal (SELEX z-score, GST-corrected) turned out to be 4.19.

Take AAUACA [6-mer AATACA]: the binding signal (SELEX z-score, GST-corrected) is 3.32 in data set [1], 2.77 in data set [2] and 3.44 in data set [5].

For ACACAC [6-mer ACACAC], the binding signal (SELEX z-score, GST-corrected) in data set [4] was 5.19; in data set [5], 3.26.

In data set [1], AAUGAA [6-mer AATGAA] gave a binding signal (SELEX z-score, GST-corrected) of 3.19.

Consider ACAUAA [6-mer ACATAA], for which the values for the binding signal (SELEX z-score, GST-corrected) in data set [1], in data set [2] and in data set [5] were 3.74, 2.92 and 3.61, respectively.

In data set [1], AAUAAA [6-mer AATAAA] came in with a binding signal (SELEX z-score, GST-corrected) of 3.28.

On to AUAAUA [6-mer ATAATA], for which, in data set [1], the binding signal (SELEX z-score, GST-corrected) came out at 3.54.

As for AUCACA [6-mer ATCACA], the binding signal (SELEX z-score, GST-corrected) worked out at 4.39 in data set [4] and 3.5 in data set [3].

AUAUAA [6-mer ATATAA] displayed a binding signal (SELEX z-score, GST-corrected) in data set [1] of 3.89.

Regarding ACGGCA [6-mer ACGGCA], the binding signal (SELEX z-score, GST-corrected) is 3.02 in data set [2] and 4.07 in data set [3].

CAAUCA [6-mer CAATCA] gave a binding signal (SELEX z-score, GST-corrected) in data set [4] of 5.47.

Regarding CACACA [6-mer CACACA], the binding signal (SELEX z-score, GST-corrected) in data set [2] was 3.36; in data set [4], 6.79; in data set [3], 4.75; in data set [5], 4.01.

In the case of HMGA2 WT, in data set [6], the Kd stood at 13.1 nM.

As to AACAUA [6-mer AACATA], the binding signal (SELEX z-score, GST-corrected) in data set [1] came to 3.48; in data set [5], 2.92.

In data set [1], AAAUAA [6-mer AAATAA] had a binding signal (SELEX z-score, GST-corrected) of 3.39.

Turning to CAUACA [6-mer CATACA], the binding signal (SELEX z-score, GST-corrected) is 2.86 in data set [2], 3.6 in data set [4], 3.76 in data set [3] and 3.49 in data set [5].

For the substance AAUUAA [6-mer AATTAA], in data set [1], the binding signal (SELEX z-score, GST-corrected) is 3.41.

As for ACAACA [6-mer ACAACA], the binding signal (SELEX z-score, GST-corrected) is 3.86 in data set [4] and 2.86 in data set [5].

CAUUCA [6-mer CATTCA]: the binding signal (SELEX z-score, GST-corrected) in data set [4] worked out at 3.79; in data set [3] it was 3.36.

As to CAAACA [6-mer CAAACA], the binding signal (SELEX z-score, GST-corrected) in data set [4] came to 3.91.

The substance GUCGGC [6-mer GTCGGC] displayed a binding signal (SELEX z-score, GST-corrected) in data set [3] of 3.3.

GGCAUC [6-mer GGCATC] displayed a binding signal (SELEX z-score, GST-corrected) in data set [3] of 3.48.

Turning to CGGCAC [6-mer CGGCAC], the figures for the binding signal (SELEX z-score, GST-corrected) in data set [2] and in data set [3] were 2.99 and 4.28, respectively.

UACACA [6-mer TACACA] yielded a binding signal (SELEX z-score, GST-corrected) in data set [5] of 2.92.

Consider AAUAUA [6-mer AATATA], for which the binding signal (SELEX z-score, GST-corrected) in data set [1] is 3.67.

Turning to CAUCAC [6-mer CATCAC], the binding signal (SELEX z-score, GST-corrected) in data set [3] was 3.28.

Regarding AUAACA [6-mer ATAACA], the binding signal (SELEX z-score, GST-corrected) in data set [1] turned out to be 4.15; in data set [2] it was 3.19; in data set [5], 3.77.

In the case of AUACAU [6-mer ATACAT], the binding signal (SELEX z-score, GST-corrected) in data set [2] came out at 2.8; in data set [5], 3.08.

AAUCAU [6-mer AATCAT] came in with a binding signal (SELEX z-score, GST-corrected) in data set [4] of 3.82.

CGGCCA [6-mer CGGCCA]: the binding signal (SELEX z-score, GST-corrected) in data set [2] was 2.71.

For CAACAC [6-mer CAACAC], the binding signal (SELEX z-score, GST-corrected) in data set [4] was found to be 3.39.

For the substance CAUCAU [6-mer CATCAT], in data set [3], the binding signal (SELEX z-score, GST-corrected) came to 3.65.

Consider GCACAC [6-mer GCACAC], for which the binding signal (SELEX z-score, GST-corrected) in data set [3] turned out to be 3.25.

ACAUCA [6-mer ACATCA]: the binding signal (SELEX z-score, GST-corrected) was found to be 3.94 in data set [4] and 4.02 in data set [3].

Consider CACAAC [6-mer CACAAC], for which the binding signal (SELEX z-score, GST-corrected) in data set [4] turned out to be 3.4.

Regarding CACAUA [6-mer CACATA], the binding signal (SELEX z-score, GST-corrected) worked out at 3.19 in data set [2] and 3.62 in data set [5].

Turning to ACAUAU [6-mer ACATAT], the binding signal (SELEX z-score, GST-corrected) was found to be 3.36 in data set [1], 2.88 in data set [2] and 2.92 in data set [5].

Consider AACACA [6-mer AACACA], for which the binding signal (SELEX z-score, GST-corrected) in data set [2] amounted to 2.92; in data set [4] it was 5.77; in data set [3] it was 4.2; in data set [5], 4.09.

On to ACAAUA [6-mer ACAATA], for which the binding signal (SELEX z-score, GST-corrected) came out at 3.13 in data set [1], 2.68 in data set [2] and 3.75 in data set [5].

As to ACACAU [6-mer ACACAT], the binding signal (SELEX z-score, GST-corrected) in data set [2] is 3.27; in data set [4] it was 4.49; in data set [3], 3.99; in data set [5], 3.81.
